Laboratory results published in patent publication US20030099969A1 (published 2003).

Experiments:
[1] = target: T1, T7-tagged full length Ipaf
T1 chain: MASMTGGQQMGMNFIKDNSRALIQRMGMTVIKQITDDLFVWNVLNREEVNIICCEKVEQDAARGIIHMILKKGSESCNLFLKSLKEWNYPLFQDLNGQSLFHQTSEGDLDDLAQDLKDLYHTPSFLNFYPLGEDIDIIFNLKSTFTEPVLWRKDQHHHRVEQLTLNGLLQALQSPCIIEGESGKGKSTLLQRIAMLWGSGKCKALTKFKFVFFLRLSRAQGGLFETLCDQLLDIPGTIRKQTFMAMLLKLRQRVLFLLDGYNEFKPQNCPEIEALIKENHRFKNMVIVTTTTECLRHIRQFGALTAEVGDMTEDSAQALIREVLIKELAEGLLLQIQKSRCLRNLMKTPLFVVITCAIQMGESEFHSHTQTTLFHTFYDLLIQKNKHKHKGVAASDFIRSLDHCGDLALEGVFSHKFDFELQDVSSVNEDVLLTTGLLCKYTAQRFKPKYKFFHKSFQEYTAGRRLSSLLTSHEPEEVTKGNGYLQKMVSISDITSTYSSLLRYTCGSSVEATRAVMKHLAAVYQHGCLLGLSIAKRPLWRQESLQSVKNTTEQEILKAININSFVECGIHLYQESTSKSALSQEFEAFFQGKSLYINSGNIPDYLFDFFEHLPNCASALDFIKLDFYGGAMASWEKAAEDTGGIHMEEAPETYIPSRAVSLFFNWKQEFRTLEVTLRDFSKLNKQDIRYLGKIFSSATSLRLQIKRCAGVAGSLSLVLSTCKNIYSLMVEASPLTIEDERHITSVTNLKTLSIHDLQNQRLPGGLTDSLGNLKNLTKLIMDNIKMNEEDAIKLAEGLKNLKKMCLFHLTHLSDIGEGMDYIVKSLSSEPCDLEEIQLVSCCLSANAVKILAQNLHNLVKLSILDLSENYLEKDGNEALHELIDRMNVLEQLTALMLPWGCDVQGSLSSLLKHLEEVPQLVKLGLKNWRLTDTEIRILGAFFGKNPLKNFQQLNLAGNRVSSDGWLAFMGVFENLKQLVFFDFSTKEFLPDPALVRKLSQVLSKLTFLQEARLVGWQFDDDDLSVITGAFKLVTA

[2] = target: T2, Ipaf 1-661
T2 chain: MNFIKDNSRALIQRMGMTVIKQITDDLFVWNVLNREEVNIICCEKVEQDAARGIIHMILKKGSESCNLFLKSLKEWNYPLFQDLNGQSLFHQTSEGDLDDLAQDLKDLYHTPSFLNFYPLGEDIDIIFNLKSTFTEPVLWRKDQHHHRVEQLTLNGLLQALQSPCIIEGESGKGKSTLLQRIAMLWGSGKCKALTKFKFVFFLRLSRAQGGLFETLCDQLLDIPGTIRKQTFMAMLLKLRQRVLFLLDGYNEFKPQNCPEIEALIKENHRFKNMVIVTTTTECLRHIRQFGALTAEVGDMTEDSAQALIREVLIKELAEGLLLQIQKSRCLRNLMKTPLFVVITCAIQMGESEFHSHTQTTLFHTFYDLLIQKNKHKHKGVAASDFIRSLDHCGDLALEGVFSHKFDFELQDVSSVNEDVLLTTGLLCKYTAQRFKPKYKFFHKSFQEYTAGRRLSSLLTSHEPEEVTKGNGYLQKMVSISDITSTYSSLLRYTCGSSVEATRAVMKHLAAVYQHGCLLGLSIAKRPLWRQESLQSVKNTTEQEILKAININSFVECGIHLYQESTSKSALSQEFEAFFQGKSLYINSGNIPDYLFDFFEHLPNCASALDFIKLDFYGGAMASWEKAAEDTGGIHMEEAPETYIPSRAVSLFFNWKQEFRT

[3] = target: T3, T7-tagged full length Ipaf (human, UniProt Q9NPP4 1-1024); experiment: co-immunoprecipitation from 293T lysates (IP anti-Flag, blot anti-T7)
T3 construct: also called T7-Ipaf; T7-tagged Ipaf
Description: 24 hours following transfection, cells were lysed in 50 mM Tris/HCl pH 7.6, 150 mM NaCl containing 0.5% NP-40, 10 μg.ml⁻¹ leupeptin and aprotinin and 0.1 mM PMSF and clarified by centrifugation at 15,000 g for 15 min. The clarified lysates were preabsorbed on protein G-Sepharose (Pharmacia) and then incubated with anti-FLAG-M5 monoclonal antibody (Eastman Kodak Co.) for 2 hours, followed by protein G-Sepharose agarose IgG beads. Immune complexes were washed extensively in the lysis buffer and eluted by boiling in an SDS sample buffer. The eluted proteins were resolved by SDS-PAGE and detected by Western analysis with a horseradish peroxidase-conjugate T7-antibody (Novagen). GST Pull-down assays were performed as described (Ahmad et al., Cancer Res 57:615-9, 1997).
24 hours following transfection, cells were lysed and the lysates immunoprecipitated (IP) with an anti-Flag antibody. The immunoprecipitates were immunoblotted (IB) with an anti-T7 antibody. Expression of T7-Ipaf or Flag-tagged constructs was determined by immunoblotting (IB) with anti-T7 or anti-Flag antibodies, respectively. […] This association was dependent on the N-terminal CARD as deletion of this domain prevented the CARD-truncated Ipaf mutant from interacting with the full-length Ipaf. Moreover, the epitope-tagged CARD of Ipaf was able to co-immunoprecipitate the full-length protein.

B1: N-terminally Flag-tagged procaspase-1 (protein)
chain: DYKDDDDKMADKVLKEKRKLFIRSMGEGTINGLLDELLQTRVLNKEEMEKVKRENATVMDKTRALIDSVIPKGAQACQICITYICEEDSYLAGTLGLSADQTSGNYLNMQDSQGVLSSFPAPQAVQDNPAMPTSSGSEGNVKLCSLEEAQRIWKQKSAEIYPIMDKSSRTRLALIICNEEFDSIPRRTGAEVDITGMTMLLQNLGYSVDVKKNLTASDMTTELEAFAHRPEHKTSDSTFLVFMSHGIREGICGKKHSEQVPDILQLNAIFNMLNTKNCPSLKDKPKVIIIQACRGDSPGVVWFKDSVGVSGNLSLPTTEEFEDDAIKKAHIEKDFIAFCSSTPDNVSWRHPTMGSVFIGRLIEHMQEYACSCDVEEIFRKVRFSFEQPDGRAQMPTTERVTLTRCFYLFPGH
With B1 the “proteolytic activation (processing) of procaspase-1, anti-Flag immunoblot of 293T lysates” value [1] was “Co-expression of the LRR-truncated Ipaf mutant, but not the full-length protein, was able to induce proteolytic activation of procaspase-1” and the “proteolytic activation (processing) of procaspase-1, anti-Flag immunoblot of 293T lysates” value [2] was “Co-expression of the LRR-truncated Ipaf mutant, but not the full-length protein, was able to induce proteolytic activation of procaspase-1”.

B2: Flag-tagged CARD-deleted mutant (residues 80-1024) of Ipaf (other)
chain: DYKDDDDKLFQDLNGQSLFHQTSEGDLDDLAQDLKDLYHTPSFLNFYPLGEDIDIIFNLKSTFTEPVLWRKDQHHHRVEQLTLNGLLQALQSPCIIEGESGKGKSTLLQRIAMLWGSGKCKALTKFKFVFFLRLSRAQGGLFETLCDQLLDIPGTIRKQTFMAMLLKLRQRVLFLLDGYNEFKPQNCPEIEALIKENHRFKNMVIVTTTTECLRHIRQFGALTAEVGDMTEDSAQALIREVLIKELAEGLLLQIQKSRCLRNLMKTPLFVVITCAIQMGESEFHSHTQTTLFHTFYDLLIQKNKHKHKGVAASDFIRSLDHCGDLALEGVFSHKFDFELQDVSSVNEDVLLTTGLLCKYTAQRFKPKYKFFHKSFQEYTAGRRLSSLLTSHEPEEVTKGNGYLQKMVSISDITSTYSSLLRYTCGSSVEATRAVMKHLAAVYQHGCLLGLSIAKRPLWRQESLQSVKNTTEQEILKAININSFVECGIHLYQESTSKSALSQEFEAFFQGKSLYINSGNIPDYLFDFFEHLPNCASALDFIKLDFYGGAMASWEKAAEDTGGIHMEEAPETYIPSRAVSLFFNWKQEFRTLEVTLRDFSKLNKQDIRYLGKIFSSATSLRLQIKRCAGVAGSLSLVLSTCKNIYSLMVEASPLTIEDERHITSVTNLKTLSIHDLQNQRLPGGLTDSLGNLKNLTKLIMDNIKMNEEDAIKLAEGLKNLKKMCLFHLTHLSDIGEGMDYIVKSLSSEPCDLEEIQLVSCCLSANAVKILAQNLHNLVKLSILDLSENYLEKDGNEALHELIDRMNVLEQLTALMLPWGCDVQGSLSSLLKHLEEVPQLVKLGLKNWRLTDTEIRILGAFFGKNPLKNFQQLNLAGNRVSSDGWLAFMGVFENLKQLVFFDFSTKEFLPDPALVRKLSQVLSKLTFLQEARLVGWQFDDDDLSVITGAFKLVTA
notes: also called Flag-?CARD Ipag; CARD-truncated Ipaf mutant
B2: no binding [3].
